Publication PMC10772716
Values belong to the substance of their own block, whether it stands above or below them.

Key:
Assay in all cases: SEC-MALS
[1] = molecular target: cMyBP-C C3C6 domains, N755K variant (human) (UniProt Q14896)
[2] = molecular target: cMyBP-C C3C6 domains, R820Q variant (human) (UniProt Q14896)
[3] = molecular target: cMyBP-C C3C6 domains, E542Q variant (human) (UniProt Q14896)

stoichiometry N [1]: 2
Substance: cMyBP-C C3C6 domains, N755K variant (from UniProt Q14896 1-1274) (domain or fragment)

stoichiometry N [2]: 2
Substance: cMyBP-C C3C6 domains, R820Q variant (from UniProt Q14896 1-1274) (domain or fragment)

stoichiometry N [3]: 2
Substance: cMyBP-C C3C6 domains, E542Q variant (from UniProt Q14896 1-1274) (domain or fragment)
